Patent US20170059576, “METHOD OF DETERMINING A PROTEIN IN A SAMPLE” (RHEINISCHE FRIEDRICH-WILHELMS UNIVERSITAT BONN, published 2017)

Tests used:
[1] = biological target: T1, c-Met ectodomain-Fc fusion (HGFR) (UniProt P08581 P08581:25-932); assay: filter; competition vs 32P-trCLN3; PBS pH 7.4, 3 mM MgCl2, tRNA 1 mg/ml, BSA 1 mg/ml, 37 C; conditions: tags: human IgG1 Fc fusion; His (detected with anti-penta-His); R&D Systems; chain copies: 2; label: biotin; G4
Method: (§1) To determine the affinity, ˜10 fmol of radiolabeled aptamer was incubated with protein dilution series for 30 min at 37° C. in 25 μL of buffer containing 1 mg/ml E. coli tRNA (Roche, Mannheim, Germany), 1 μg/ml BSA, 3 mM MgCl₂ in PBS, pH 7.4. For Sec7, 0.005% Triton X-100 was added and for c-Met-Fc, 1 mg/ml of BSA was used instead of 1 μg/ml. The aptamer-protein complexes were captured on a Protran™ nitrocellulose membrane (GE Healthcare) that was pre-incubated in 0.4 M KOH for 10 minutes, followed by washing with ddH₂O and PBS containing 3 mM MgCl₂, pH 7.4. After addition of the aptamer-protein solution, the filter was washed 4 times with PBS containing 3 mM MgCl₂, pH 7.4. Radioactivity was quantified using a Fujifilm Fla-3000 PhosphorImager and AIDA software package. The percentage of bound aptamer was calculated using equation 1: […]

[2] = biological target: T1, c-Met ectodomain-Fc fusion (HGFR); assay: filter; no binding in tested range; in photo-crosslinking 24-fold lower signal than ABAL-trCLN3 at 500 nM c-Met (p87); conditions: tags: human IgG1 Fc fusion; His (detected with anti-penta-His); R&D Systems; chain copies: 2; label: biotin
Method: as §1

[3] = biological target: T1, c-Met ectodomain-Fc fusion (HGFR); assay: filter; competition vs 32P-trCLN3; PBS pH 7.4, 3 mM MgCl2, tRNA, BSA, 37 C; nanomolar affinity stated; conditions: tags: human IgG1 Fc fusion; His (detected with anti-penta-His); R&D Systems; chain copies: 2; label: 5'-32P for radiolabeled tracer; G4 (two G-quadruplexes)
Cytohesin-2 Sec7 domain [4] = biological target: T2, Cytohesin-2 Sec7 domain (UniProt Q99418 Q99418:72-201); assay: filter; competition vs 32P-C10.35; IC50 only in figure; 3 mM MgCl2 in PBS, 0.005% Triton X-100, 37 C; conditions: tags: His (detected with anti-penta-His); expressed in E. coli; label: 5'-32P for radiolabeled tracer; stem with a double bulge
T2 sequence: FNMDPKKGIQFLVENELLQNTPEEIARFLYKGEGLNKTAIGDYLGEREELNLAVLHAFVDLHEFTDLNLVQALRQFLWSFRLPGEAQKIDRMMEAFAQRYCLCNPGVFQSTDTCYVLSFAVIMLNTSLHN
Method: (§2) To determine the affinity, ˜10 fmol of radiolabeled aptamer was incubated with protein dilution series for 30 min at 37° C. in 25 μL of buffer containing 1 mg/ml E. coli tRNA (Roche, Mannheim, Germany), 1 μg/ml BSA, 3 mM MgCl₂ in PBS, pH 7.4. For Sec7, 0.005% Triton X-100 was added and for c-Met-Fc, 1 mg/ml of BSA was used instead of 1 μg/ml. The aptamer-protein complexes were captured on a Protran™ nitrocellulose membrane (GE Healthcare) that was pre-incubated in 0.4 M KOH for 10 minutes, followed by washing with ddH₂O and PBS containing 3 mM MgCl₂, pH 7.4. After addition of the aptamer-protein solution, the filter was washed 4 times with PBS containing 3 mM MgCl₂, pH 7.4. Radioactivity was quantified using a Fujifilm Fla-3000 PhosphorImager and AIDA software package. The percentage of bound aptamer was calculated using equation 1:
(§3) Filter retention assays in which the 5′-functionalized aptamer competed with the non-functionalized aptamer for binding to Sec-7 were performed as described above to test the influence of the 5′-functionalization on aptamer binding.

Cytohesin-2 Sec7 domain [5] = biological target: T2, Cytohesin-2 Sec7 domain; assay: filter; affinity not altered vs unfunctionalized C10.35; high UV cross-linking; also cross-links in H460 lysate (p104); conditions: tags: His (detected with anti-penta-His); expressed in E. coli; label: biotin; stem with a double bulge
Method: as §2, §3

Cytohesin-2 Sec7 domain [6] = biological target: T2, Cytohesin-2 Sec7 domain; assay: 365 nm photo-crosslinking, Western blot; marginal at highest concentration only; no band in H460 lysate (p104); conditions: tags: His (detected with anti-penta-His); expressed in E. coli; label: biotin
Method: Incubation of the target protein Sec7 with the 5′-functionalized aptamer C10.35 was performed by mixing 250 nM of the aptamer with different protein concentrations at 37° C. for 30 min as described in Examples 2 and 4. Crosslinking also was performed on ice by illuminating at 365 nm for 10 minutes.
Further, the amount of cross-linking of the 5′-functionalized aptamer C 10.35 to Sec-7 was investigated after incubating […] 167 nm, 56 nm and 19 nM Sec-7 with 250 nM of the 5′-functionalized aptamers C10.35 and C10.35 C15T, followed by UV irradiation at 365 nm using SDS-PAGE, followed by western blotting using neutravidin-dylight™ 800 (Thermo Scientific) to visualize biotinylated proteins. Anti-penta-his (1:2000, Qiagen) was used to visualize the total amount of Sec7 and goat-anti-mouse-IgG-dylight™ 800 (Thermo Scientific) was used as a secondary antibody. The blots were scanned at 800 nm using an Odyssey scanner (Li-cor Biotechnology, Bad Homburg, Germany).

T1 sequence (P08581 25-932, one chain of several): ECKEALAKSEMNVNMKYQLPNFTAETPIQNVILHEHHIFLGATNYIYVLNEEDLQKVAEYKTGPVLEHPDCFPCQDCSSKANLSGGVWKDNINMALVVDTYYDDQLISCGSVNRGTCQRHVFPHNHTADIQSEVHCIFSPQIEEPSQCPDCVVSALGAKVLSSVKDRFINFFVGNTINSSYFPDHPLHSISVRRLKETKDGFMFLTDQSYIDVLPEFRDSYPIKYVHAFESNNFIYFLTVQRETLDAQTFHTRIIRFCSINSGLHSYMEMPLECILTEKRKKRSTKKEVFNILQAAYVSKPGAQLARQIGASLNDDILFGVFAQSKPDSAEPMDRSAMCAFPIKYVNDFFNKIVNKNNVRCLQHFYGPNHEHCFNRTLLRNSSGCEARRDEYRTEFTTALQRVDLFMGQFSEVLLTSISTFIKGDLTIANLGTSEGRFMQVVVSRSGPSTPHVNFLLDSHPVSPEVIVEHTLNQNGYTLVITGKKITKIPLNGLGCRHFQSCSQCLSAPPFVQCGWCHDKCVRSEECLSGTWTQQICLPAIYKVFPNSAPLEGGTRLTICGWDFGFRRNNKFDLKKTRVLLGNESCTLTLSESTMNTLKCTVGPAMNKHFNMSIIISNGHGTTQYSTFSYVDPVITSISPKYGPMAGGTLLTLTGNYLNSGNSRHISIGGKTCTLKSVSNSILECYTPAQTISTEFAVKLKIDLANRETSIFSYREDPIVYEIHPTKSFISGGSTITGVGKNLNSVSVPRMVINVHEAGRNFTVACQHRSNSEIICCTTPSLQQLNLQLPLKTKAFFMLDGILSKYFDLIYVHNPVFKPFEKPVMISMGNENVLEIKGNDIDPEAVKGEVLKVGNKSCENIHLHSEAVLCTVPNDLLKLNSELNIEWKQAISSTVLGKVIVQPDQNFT

Work on TGGATGGTAGCTCGGTCGGGGTGGGTGGGTTGGCAAGTCT (ssDNA, 5'-hexylamine coupled Sulfo-SBED (phenyl azide, biotin)) [ABAL-trCLN3] yielded an IC50 [1] of 0.05 µM.

TGGATGGTAGCTCGGTCGGGGTGGATGGGTTGGCAAGTCT (ssDNA, 5'-hexylamine coupled Sulfo-SBED (phenyl azide, biotin)) [ABAL-trCLN3 G25A]: no binding [2].

TGGATGGTAGCTCGGTCGGGGTGGGTGGGTTGGCAAGTCT (ssDNA) [trCLN3] gave an IC50 [3] of 0.076 µM.

ACTCGGGAGGACTGCTTAGGATTGCGAACCCGGGT (ssDNA) [C10.35]: binds (Cytohesin-2 Sec7 domain [4]).

ACTCGGGAGGACTGCTTAGGATTGCGAACCCGGGT (ssDNA, 5'-hexylamine coupled Sulfo-SBED (phenyl azide, biotin)) [ABAL-C10.35]: binds (Cytohesin-2 Sec7 domain [5]).

With ACTCGGGAGGACTGTTTAGGATTGCGAACCCGGGT (ssDNA, 5'-hexylamine coupled Sulfo-SBED (phenyl azide, biotin)) [ABAL-C10.35 C15T] the binding signal (Cytohesin-2 Sec7 domain [6]) was 7 fold lower cross-linking than ABAL-C10.35.
